Literature values in patent publication US20250177452A1, “USE OF IMMUNOSUPPRESSION TO ENABLE ENGRAFTMENT OF HEMATOPOIETIC STEM CELLS” (The Board of Trustees of the Leland Stanford Junior …, priority 2022, published 2025).

Experiments:
CD52 = target: T1, CD52 (Homo sapiens, UniProt P31358); conditions: single injection
T1 construct: CD52 is expressed on 95% of peripheral blood lymphocytes, monocytes and thymocytes; host or cells: endogenous CD52 on peripheral blood lymphocytes in vivo

[1] = in vivo

Molecule	depletion of lymphocytes (CD52)	maximum tolerated dose (MTD) [1]
Alemtuzumab: recombinant humanized monoclonal antibody against CD52	over 99%	–
IMGN901: CD56-targeting antibody-drug conjugate delivering the cytotoxic maytansinoid DM1 (conjugate, chains of the INN, looked up, DM1 maytansinoid payload, CD56-targeting antibody-drug conjugate delivering the cytotoxic maytansinoid DM1) VH: QVQLVESGGGVVQPGRSLRLSCAASGFTFSSFGMHWVRQAPGKGLEWVAYISSGSFTIYYADSVKGRFTISRDNSKNTLYLQMNSLRAEDTAVYYCARMRKGYAMDYWGQGTLVTVSS VL: DVVMTQSPLSLPVTLGQPASISCRSSQIIIHSDGNTYLEWFQQRPGQSPRRLIYKVSNRFSGVPDRFSGSGSGTDFTLKISRVEAEDVGVYYCFQGSHVPHTFGQGTKVEIK	–	about 75 mg/m^2
